Data on 2 molecules can be found in patent publication US20100093602A1 (CASE WESTERN RESERVE UNIVERSITY, published 2010).

B2: human N-cadherin-Fc (R&D Systems) (Fc fusion, UniProt P19022 160-724, looked up)
chain: DWVIPPINLPENSRGPFPQELVRIRSDRDKNLSLRYSVTGPGADQPPTGIFIINPISGQLSVTKPLDREQIARFHLRAHAVDINGNQVENPIDIVINVIDMNDNRPEFLHQVWNGTVPEGSKPGTYVMTVTAIDADDPNALNGMLRYRIVSQAPSTPSPNMFTINNETGDIITVAAGLDREKVQQYTLIIQATDMEGNPTYGLSNTATAVITVTDVNDNPPEFTAMTFYGEVPENRVDIIVANLTVTDKDQPHTPAWNAVYRISGGDPTGRFAIQTDPNSNDGLVTVVKPIDFETNRMFVLTVAAENQVPLAKGIQHPPQSTATVSVTVIDVNENPYFAPNPKIIRQEEGLHAGTMLTTFTAQDPDRYMQQNIRYTKLSDPANWLKIDPVNGQITTIAVLDRESPNVKNNIYNATFLASDNGIPPMSGTGTLQIYLLDINDNAPQVLPQEAETCETPDPNSINITALDYDIDPNAGPFAFDLPLSPVTIKRNWTITRLNGDFAQLNLKIKFLEAGIYEVPIIITDSGNPPKSNISILRVKVCQCDSNGDCTDVDRIVGAGLGTGA
notes: also called N-cadherin substrate; purified N-cadherin substrate; not shown: Fc part of the bought fusion

Assay [1] has as its target B2. Description: cell-based or functional assay.
Assay [2] addresses T1, N-cadherin expressed on human glioblastoma LN-229 cells (human, UniProt P19022 160-906).
T1 construct: whole, on cells
T1 sequence (looked up): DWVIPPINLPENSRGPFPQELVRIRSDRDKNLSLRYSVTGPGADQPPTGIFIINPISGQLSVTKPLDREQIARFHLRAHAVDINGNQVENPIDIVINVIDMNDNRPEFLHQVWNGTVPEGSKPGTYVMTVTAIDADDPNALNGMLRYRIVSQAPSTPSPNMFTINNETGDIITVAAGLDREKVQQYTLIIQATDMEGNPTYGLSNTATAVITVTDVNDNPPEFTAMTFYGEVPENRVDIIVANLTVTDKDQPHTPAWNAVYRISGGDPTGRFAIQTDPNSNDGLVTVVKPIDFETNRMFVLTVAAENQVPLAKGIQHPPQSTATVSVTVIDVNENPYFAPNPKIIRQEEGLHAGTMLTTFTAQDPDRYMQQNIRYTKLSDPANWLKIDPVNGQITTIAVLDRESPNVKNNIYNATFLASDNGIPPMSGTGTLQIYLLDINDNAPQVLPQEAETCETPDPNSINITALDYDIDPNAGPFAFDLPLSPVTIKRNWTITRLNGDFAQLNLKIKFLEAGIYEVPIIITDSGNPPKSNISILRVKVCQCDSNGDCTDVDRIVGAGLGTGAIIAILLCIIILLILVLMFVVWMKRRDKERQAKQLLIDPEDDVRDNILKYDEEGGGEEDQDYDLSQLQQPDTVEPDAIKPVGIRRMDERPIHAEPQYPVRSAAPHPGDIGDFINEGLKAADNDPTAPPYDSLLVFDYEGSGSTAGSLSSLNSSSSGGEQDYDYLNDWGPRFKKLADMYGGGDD
In words: cell adhesion assay: LN-229 cells on spots of N-cadherin-Fc on nitrocellulose-coated dishes; this is the pair whose adhesion ADH-1 reduces. The procedure: Sterile 35 mm tissue culture dishes were coated with nitrocellulose in methanol and allowed to dry. Distinct spots, containing 50 ng of either purified Laminin (Sigma) or N-cadherin-Fc (R&D Systems), were made by spotting 10 μl of protein solution on the nitrocellulose-coated tissue culture dishes. Each dish contained two distinct spots of both Laminin and N-cadherin-Fc. After a 20-min incubation at room temperature, the protein solutions were aspirated. Remaining binding sites on the nitrocellulose were blocked with 2% BSA in PBS, and the dishes were rinsed with DMEM (Invitrogen).
4×10⁵ cells were added to each tissue culture dish in the presence of N-cadherin peptidomimetic small molecules, reconstituted in either DMSO or 0.3% cyclodextrin, and diluted in DMEM supplemented with 10% fetal bovine serum (HyClone). In the control experiments, either DMSO or cyclodextrin was added with LN-229 cells in the absence of the peptidomimetic small molecules. The cells were allowed to adhere to the protein substrate for 2 hours at 37° C., 5% CO₂. After incubation, the medium was removed and the tissue culture dishes were rinsed once with PBS to remove any unattached cells. Cells were fixed with 4% PFA, 0.01% glutaraldehyde in PEM buffer for 10 minutes at room temperature and rinsed once in PBS prior to imaging.

B1: ADH-1 (short cyclic HAV peptide N-Ac-CHAVC-NH2) (peptide)
peptide: Ac-CHAVC-NH2
modifications: also: cyclic peptide, cyclising bond not given here
Turning to B1, the “IC50 for inhibition of RGC neurite outgrowth” value in assay [1] came out at 2330 µM.

For B2, the binding result in assay [2] is given as “binds”.
